Reference: the DeepSol protein solubility set

Assay: soluble on expression in E. coli; label from the status in PepcDB or PDB records

Row | Sequence | soluble on expression in E. coli
1 | MGSSHHHHHHSSGRENLYFQGHMIPEHLSIYTAYNANIAAIVKLNQETIQNLINAFDPDEVKRRIEEYPREINEPIDFVARLVHTLKLGKPAAVPLVNEKMNEWFDKTFRYEEERLGGQAGIIANTLAGLKIRKVIAYTPFLPKRLAELFKKGVLYPVVENGELQFKPIQEAYREGDPLKINRIFEFRKGLKFKLGDETIEIPNSGRFIVSARFESISRIETREDIKPFLGEIGKEVDGAIFSGYQGLRTKYSDGKDANYYLRRAKEDIIEFKEKDVKIHVEFASVQDRKLRKKIITNILPFVDSVGIDEAEIAQILSVLGYRELADRIFTYNRLEDSILGGMIILDELNFEILQVHTTYYLMYITHRDNPLSEEELAKSLEFGTTLAAARASLGDIRGPDDYKVGLKVPFNERSEYVKLRFEEAKSRLRMREYKVVVIPTRLVQNPVLTVGLGDTISAGAFLTYLEFLKRHGS | soluble
2 | MSTLKVVSSKLAAEIDKELMGPQIGFTLQQLMELAGFSVAQAVCRQFPLRGKTETEKGKHVFVIAGPGNNGGDGLVCARHLKLFGYNPVVFYPKRSERTEFYKQLVHQLNFFKVPVLSQDEGNWLEYLKPEKTLCIVDAIFGFSFKPPMREPFKGIVEELCKVQNIIPIVSVDVPTGWDVDKGPISQPSINPAVLVSLTVPKPCSSHIRENQTTHYVGGRFIPRDFANKFGFEPFGYESTDQILKL | soluble
3 | SMKFQARVLTLYPEMFPGFLGCSLAGQALKQGIWSLETVQIRDFALDKHHSVDDTPAGGGAGMVMRADVLAAALDSCPNDSPRLLMSPRGRLLNQAYARSLARSSGVTLVCGRFEGVDERIIEARELEEVSIGDYILSGGETAALVLLDAIVRLLPGVMGNEISAKCESFENGLLEHPQYTRPAVFEGRGIPPVLTSGHHKAIANWRQQQAESLTRQRRPDLYALYNKNRQKT | soluble
4 | PWDSENTIYDKVDQTKRFIEDVVKSFKQNNAILGWILTNEISLVRIPQNDNIFLRWLRELYNYIKRIDDQHLISVGDNVSPFSHNFLRPENVKGIVDYASPHIYQYDQDPIRHSIRYFMILEYDRSAGLPVILEEFG | not soluble
5 | MLPDVQLLKPEVPIGLSRVGATGIKKLVEVQREGKRPIILISTFDVFVDLPAHLKGVNLSRNFEVIDEVLETLTAKPIENIEDLVVEIADHLLKRHEYATKAEARMNSELIMRKRTPKTGQRTQEVVKIFGEATLGRDGSKVIMVGVEVTGITACPCAQELVKASSAERLAKMGFDEETIQKILDAIPVATHNQRGRATLKVQVTDSFKVPIAKLIDVAKSSMSYETYEILKREDELAVVEAAHRNTRFVEDGVRYMAMELLKTFPNAPDDILVFLRQENEESIHQHNVVAERFA | not soluble
6 | MGSDKIHHHHHHMTNIGETIHQIRLSKGLTQQEVYSGIISRSFASRFESGANDIGASKLFAILDNLAISADELRFIHQNYQPSAYDQALWTIRHAYETLNFPALATWIREHRHSPHAYEQLIASYASILMLSYDHRSIGITTTTQPAFDHLRQAKTWTLQELKLVPVLIPIIASIDGLAALTPLTTRMAANCASYQTAWGDPFHVSNDLLDFYGSLFQTKLNFHDFQSAQNLKTKFTAIDSHQLNWDGRLSQQFWLGIWNLYFGDWQIGNQLLDEVSVLETHHHPRIDNTLFAIRNVRTKQAQTYRQSHQSHKHL | not soluble
7 | MEPEEERIRYSQRLRGTMRRRYEDDGISDDEIEGKRTFDLEEKLHTNKYNANFVTFMEGKDFNVEYIQRGGLRDPLIFKNSDGLGIKMPDPDFTVNDVKMCVGSRRMVDVMDVNTQKGIEMTMAQWTRYYETPEEEREKLYNVISLEFSHTRLENMVQRPSTVDFIDWVDNMWPRHLKESQTESTNAILEMQYPKVQKYCLMSVRGCYTDFHVDFGGTSVWYHIHQGGKVFWLIPPTAHNLELYENWLLSGSQGDIFLGDRVSDCQRIELKQGYTFVIPSGWIHAVYTPTDTLVFGGNFLHSFNIPMQLKIYNIEDRTRVPNKFRYPFYYEMCWYVLERYVYCITNRSHLTKEFQKESLSMDLELNGLESGNGDEEAVDREPRQVHLTHFELEGLRCLVDKLESLPLHKKCVPTGIEDEDALIADVKILLEELANSDPKLALTGVPIVQWP | soluble
8 | MKLIFQMGKQPVLEKTILLFILSIVESLKLKVVSLDEAHRYIFNLEVLELLMDRNIDDQVLELIHFGMGLEDIYHVLPEELEHTIEELKWLCIQVLSEYSMHEESEQLIEDIR | not soluble
9 | MEKTSNTSKPLSRSEINKIIAVATGIKEKKIKEIFKYLNTLLLNELVSRSVCILPENLGKLRITIRNARYQKDMQTGEIRHIPPKPLVRYSPSKTIKETAAKVRWKYAD | soluble
10 | MAGDPMYRVGIDVGGTNTDAVVLQDKTVLAGVKASTTEDVTSGVIEALEKVIDASGIDRARIGAVMIGTTHFTNAVIERRHMDEVAAIRIGLPSGAGLPPMVDWPDDLKEIVGNHGYQVRGGYEFDGREISPLDEDEIVRIAADIRAKALKAAAVTCVFSGINDAMEVRAKEILQDRCPGLPVVMSKDIGRHGLLARESAAIMNASLLSLADRTVAAFGEALKAAGITCPFYITQNDGTLMAADVVRGFPVLTFASGPTNSMRGAAFLTGLKDAVVVDVGGTTSDVGSLSHGFPRQASTTVDIGGVRTNFRMPDVFSIGLGGGSMVVNGDHGLTVGPKSVGYRVRRDALCFGGSTLTATDIAVASGKADVGEKALVSSLDKRLVDAAVNKINDMLEACVERSRISSSPVPVIAVGGGSILMPDRIGNLDVIRPENFAVANAVGAAIAQISGETDRVFSLIDGRTRESALAEAEAEAREKAIAAGAIAETLEVIEREDMPLAYLPGNATRIHVKVVGEMGANHGAAALEHHHHHH | not soluble
11 | MAHHHHHHMKWKWYNTKNICTLTNVFLSKHPYKPKTREIIHPHMTPPEYLAPSDCFQAKTGELQQYIPNNYYRVKWIESLRSGEYLGEDYPWNLLPNWKYWRKRKYNVKYEEIPWFISKVKGVSYYKRLNVWMVQWVENGVHRIRRFRCAFGLLQAKLAAEQFRKKLEEAGRVDNRKTERQIRMDYIQKKDERLLRKKKYSKISKGQF | not soluble
12 | GPGSMAKRDKRRTSLVQQNFDSLKRFYAISPFAAAERATLPPVYSGVYSRRAAMNSYHVVGSSRDQIVLEAMRTFTPSVCTKEVMDLYLEVAALVSLYFDTKEQLLALPDV | not soluble
13 | MGSDKIHHHHHHMLFRASRSDMSNLTNCITNESVAVTADKKPVIGRIHSFESCGTVDGPGIRFITFFQGCLMRCLYCHNRDTWDTHGGKEITVEDLMKEVVTYRHFMNASGGGVTASGGEAILQAEFVRDWFRACKKEGIHTCLDTNGFVRRYDPVIDELLDVTDLVMLDLKQMNDEIHQNLVGVSNHRTLEFAQYLSKKNVKVWIRYVVVPGWSDDDDSAHRLGEFTRDMGNVEKIELLPYHELGKHKWVAMGEEYKLDGVKPPKKETMERVKGILEQYGHKVMY | not soluble
14 | MGSSHHHHHHSSGLVPRGSHMLEADPLLAQLKQQLHSQTPRAEGVVKATEKGFGFLEVDAQKSYFIPPPQMKKVMHGDRIIAVIHSEKERESAEPEELVEPFLTRFVGKVQGKNDRLAIVPDHPLLKDAIPCRAARGLNHEFKEGDWAVAEMRRHPLKGDRSFYAELTQYITFGDDHFVPWWVTLARHNLEKEAPDGVATEMLDEGLVREDLTALDFVTIDSASTEDMNDALFAKALPDDKLQLIVAIADPTAWIAEGSKLDKAAKIRAFTNYLPGFNIPMLPRELSDDLCSLRANEVRPVLACRMTLSADGTIEDNIEFFAATIESKAKLVYDQVSDWLENTGDWQPESEAIAEQVRLLAQICQRRGEWRHNHALVFKDRPDYRFILGEKGEVLDIVAEPRRIANRIVEEAMIAANICAARVLRDKLGFGIYNVHMGFDPANADALAALLKTHGLHVDAEEVLTLDGFCKLRRELDAQPTGFLDSRIRRFQSFAEISTEPGPHFGLGLEAYATWTSPIRKYGDMINHRLLKAVIKGETATRPQDEITVQMAERRRLNRMAERDVGDWLYARFLKDKAGTDTRFAAEIVDISRGGMRVRLVDNGAIAFIPAPFLHAVRDELVCSQENGTVQIKGETVYKVTDVIDVTIAEVRMETRSIIARPVA | soluble
15 | MSWIERIKSNITPTRKASIPEGVWTKCDSCGQVLYRAELERNLEVCPKCDHHMRMTARNRLHSLLDEGSLVELGSELEPKDVLKFRDSKKYKDRLASAQKETGEKDALVVMKGTLYGMPVVAAAFEFAFMGGSMGSVVGARFVRAVEQALEDNCPLICFSASGGARMQEALMSLMQMAKTSAALAKMQERGLPYISVLTDPTMGGVSASFAMLGDLNIAEPKALIGFAGPRVIEQTVREKLPPGFQRSEFLIEKGAIDMIVRRPEMRLKLASILAKLMNLPAPNPEAPREGVVVPPVPDQEPEA | soluble
